Results as given in paper PMC3805332, “Synthesis of α-Glucan in Mycobacteria Involves a Hetero-octameric Complex of Trehalose Synthase TreS and Maltokinase Pep2” (ACS Chemical Biology, 2013).
Read-outs that look alike come from different tables or passages of the source.

Experiments:
[1] = molecular target: M. tuberculosis trehalose synthase TreS (M. tuberculosis H37Rv) (UniProt P9WQ19); assay: AUC
[2] = molecular target: M. tuberculosis trehalose synthase TreS (M. tuberculosis H37Rv) (UniProt P9WQ19); assay: AUC; remark: listed apart in the source

Chain of M. tuberculosis trehalose synthase TreS (M. tuberculosis H37Rv) (P9WQ19 whole entry): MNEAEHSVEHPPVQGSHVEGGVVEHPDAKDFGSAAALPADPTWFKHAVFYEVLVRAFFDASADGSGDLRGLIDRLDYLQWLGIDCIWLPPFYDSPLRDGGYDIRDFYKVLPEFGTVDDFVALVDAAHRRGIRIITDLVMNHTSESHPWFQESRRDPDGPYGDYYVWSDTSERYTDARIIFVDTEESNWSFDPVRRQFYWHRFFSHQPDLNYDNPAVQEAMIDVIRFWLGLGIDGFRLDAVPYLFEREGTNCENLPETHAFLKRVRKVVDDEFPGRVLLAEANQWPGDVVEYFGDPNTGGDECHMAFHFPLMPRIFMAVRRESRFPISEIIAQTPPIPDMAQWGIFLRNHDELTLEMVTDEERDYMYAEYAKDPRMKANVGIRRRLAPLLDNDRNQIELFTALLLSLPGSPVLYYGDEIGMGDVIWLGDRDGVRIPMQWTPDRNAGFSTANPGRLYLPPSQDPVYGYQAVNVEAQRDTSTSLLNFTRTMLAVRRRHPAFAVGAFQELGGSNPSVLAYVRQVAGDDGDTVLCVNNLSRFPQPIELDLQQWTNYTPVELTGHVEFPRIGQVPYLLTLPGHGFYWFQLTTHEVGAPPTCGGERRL

## M. tuberculosis maltokinase Pep2 (from UniProt O07177 1-455) (enzyme)
[1]
  stoichiometry N (Pep2 subunits per TreS tetramer): 2
[2]
  stoichiometry N (Pep2 subunits per TreS tetramer): 4
